Columns and labels:
[1] = system: exposed pulp of rat maxillary first molars; assay: Direct pulp capping experiment using S100-A7 and S100-A7 reacted with MMP20; assay type: in vivo; details: rat molar, gelatin sponge with 20 μl of 1 μg/ml in PBS, 4 weeks after pulp capping, n=3
Protocol: Eight-week-old male Wistar rats were injected intraperitoneally with pentobarbital sodium (SomnoPentyl (Trade Mark), Kyoritsu Seiyaku Corporation, Tokyo) (30 mg/kg) as general anesthesia, and carprofen (Rimadyl®, Pfizer, USA) (3 mg/kg) was administered for pain relief. The tooth to be treated was isolated by rubber dam dry field technique, and a surface and surrounding tissue of the tooth were cleaned with an alcohol-soaked cotton ball, and then a cavity was formed using the following method based on the report by Komichi et al. [Non Patent Literature 1]. […] Maxillas, including the test teeth, were then resected and soft tissues were removed, and evaluated by the following methods. […]
Image analysis using the micro-CT (R-mCT2™M, Rigaku Corporation, Tokyo) was performed for quantitative evaluation of the formed tertiary dentin in the samples after the direct pulp capping. […] A CT value equivalent to that of the primary dentin was set as a threshold for extracting the tertiary dentin, and the area of the newly formed tertiary dentin was calculated from a binarized image. The area of the newly formed tertiary dentin was measured in each section, and the volume of the newly formed tertiary dentin was calculated by summing all of the measurements. […]

pulp cells = details: reported in Non Patent Literature 1; cited from earlier work
exposed pulp = details: rat in vivo, reported in Non Patent Literature 1; cited from earlier work

B1: S100-A7: Protein S100-A7 (PROSPEC, Israel), human-derived Protein S100 (protein, UniProt P31151 2-101, looked up)
Protein S100-A7: SNTQAERSIIGMIDMFHKYTRRDDKIEKPSLLTMMKENFPNFLSACDKKGTNYLADVFEKKDKNEDKKIDFSEFLSLLGDIATDYHKQSHGAAPCSGGSQ
For B1, the “tertiary dentin formation (micro-CT analysis)” value [1] is given as “completely covering the exposed region of pulp”, the “effect on pulp cells in vitro” value (pulp cells) is given as “activates proliferation, differentiation, and mineralization abilities” and the “tertiary dentin induction in the direct pulp capping experiment” value (exposed pulp) is given as “completely covers the surface of the exposed pulp”.

Reference: US20250084126A1, “PEPTIDE AND COMPOSITION” (OSAKA UNIVERSITY, priority 2021, published 2025)
